Here are results for 66 substances from the array DNA melting data of Ke et al..

The nature of the series: melting temperature; melt of duplexes. As to conditions: sodium 0.0675 M; strand 1 µM.
As to “CGACGTGCCGAATGTGCTG+CAGCACATGTGGCACGTCG (((((((((..((((((((+))))))))..)))))))))”, the Tm is 57.2 °C.

With “CGACGTGCGGCATGTGCTG+CAGCACATCCTGCACGTCG ((((((((.(.((((((((+)))))))).).))))))))”, the Tm came to 53.4 °C.

Regarding “CGACGTGCTGTATGTGCTG+CAGCACATAAAGCACGTCG (((((((((.(((((((((+))))))))).)))))))))”, the Tm is 55.5 °C.

On to “CGACGTGCGCGATGTGCTG+CAGCACATCTAGCACGTCG ((((((((..(((((((((+)))))))))..))))))))”, for which the Tm was found to be 55.5 °C.

On to “CGACGTGCCTTATGTGCTG+CAGCACATGTAGCACGTCG ((((((((...((((((((+))))))))...))))))))”, for which the Tm was 49.1 °C.

Regarding “CGACGTGCACAATGTGCTG+CAGCACATCGTGCACGTCG ((((((((((.((((((((+)))))))).))))))))))”, the Tm amounted to 53 °C.

On to “CGACGTGCCGCATGTGCTG+CAGCACATGCGGCACGTCG (((((((((((((((((((+)))))))))))))))))))”, for which the Tm was determined as 69.1 °C.

For the substance “CGACGTGCAGGATGTGCTG+CAGCACATGTAGCACGTCG ((((((((...((((((((+))))))))...))))))))”, the Tm turned out to be 50.4 °C.

“CGACGTGCAATATGTGCTG+CAGCACATAGAGCACGTCG ((((((((..(((((((((+)))))))))..))))))))”: the Tm turned out to be 52.7 °C.

“CGACGTGCTAGATGTGCTG+CAGCACATAGAGCACGTCG (((((((((..((((((((+))))))))..)))))))))”: the Tm stood at 53.8 °C.

Consider “CGACGTGCTCAATGTGCTG+CAGCACATGGAGCACGTCG ((((((((((.((((((((+)))))))).))))))))))”, for which the Tm turned out to be 59.5 °C.

On to “CGACGTGCGGAATGTGCTG+CAGCACATTGGGCACGTCG ((((((((..(((((((((+)))))))))..))))))))”, for which the Tm came out at 53.5 °C.

Consider “CGACGTGCGGCATGTGCTG+CAGCACATATGGCACGTCG ((((((((...((((((((+))))))))...))))))))”, for which the midpoint of thermal melting (Tm) amounted to 49.5 °C.

Consider “CGACGTGCTCCATGTGCTG+CAGCACATTTAGCACGTCG (((((((((..((((((((+))))))))..)))))))))”, for which the Tm was found to be 49.4 °C.

As to “CGACGTGCACCATGTGCTG+CAGCACATTGAGCACGTCG ((((((((.(.((((((((+)))))))).).))))))))”, the Tm was found to be 47.2 °C.

Consider “CGACGTGCGCGATGTGCTG+CAGCACATCCCGCACGTCG (((((((((.(((((((((+))))))))).)))))))))”, for which the Tm was determined as 59.2 °C.

Take “CGACGTGCTTTATGTGCTG+CAGCACATACCGCACGTCG ((((((((..(((((((((+)))))))))..))))))))”: the Tm is 48.3 °C.

On to “CGACGTGCACGATGTGCTG+CAGCACATGGCGCACGTCG ((((((((.(.((((((((+)))))))).).))))))))”, for which the Tm was 50.2 °C.

As for “CGACGTGCCTTATGTGCTG+CAGCACATAAAGCACGTCG ((((((((.((((((((((+)))))))))).))))))))”, the Tm turned out to be 53.4 °C.

In the case of “CGACGTGCGGTATGTGCTG+CAGCACATATGGCACGTCG ((((((((..(((((((((+)))))))))..))))))))”, the Tm turned out to be 54 °C.

As to “CGACGTGCAATATGTGCTG+CAGCACATACGGCACGTCG ((((((((..(((((((((+)))))))))..))))))))”, the Tm stood at 49.4 °C.

Regarding “CGACGTGCAGTATGTGCTG+CAGCACATGCCGCACGTCG ((((((((.(.((((((((+)))))))).).))))))))”, the Tm is 52.8 °C.

Regarding “CGACGTGCTGCATGTGCTG+CAGCACATCCCGCACGTCG ((((((((.(.((((((((+)))))))).).))))))))”, the Tm was found to be 49.9 °C.

On to “CGACGTGCAGCATGTGCTG+CAGCACATAACGCACGTCG ((((((((...((((((((+))))))))...))))))))”, for which the Tm worked out at 47.6 °C.

“CGACGTGCAGGATGTGCTG+CAGCACATGTCGCACGTCG ((((((((...((((((((+))))))))...))))))))”: the Tm worked out at 51.4 °C.

On to “CGACGTGCGAAATGTGCTG+CAGCACATGCGGCACGTCG ((((((((...((((((((+))))))))...))))))))”, for which the Tm is 51.7 °C.

On to “CGACGTGCGTAATGTGCTG+CAGCACATAACGCACGTCG ((((((((((.((((((((+)))))))).))))))))))”, for which the Tm is 59.1 °C.

“CGACGTGCAGCATGTGCTG+CAGCACATCCTGCACGTCG ((((((((((.((((((((+)))))))).))))))))))”: the melting temperature (Tm) stood at 53.9 °C.

In the case of “CGACGTGCCGAATGTGCTG+CAGCACATCACGCACGTCG ((((((((...((((((((+))))))))...))))))))”, the midpoint of thermal melting (Tm) worked out at 48.9 °C.

Regarding “CGACGTGCAAAATGTGCTG+CAGCACATGCAGCACGTCG ((((((((...((((((((+))))))))...))))))))”, the Tm came to 53.8 °C.

For “CGACGTGCGGGATGTGCTG+CAGCACATCGGGCACGTCG ((((((((..(((((((((+)))))))))..))))))))”, the Tm was found to be 56.1 °C.

For “CGACGTGCTGTATGTGCTG+CAGCACATACAGCACGTCG (((((((((((((((((((+)))))))))))))))))))”, the Tm was 62.1 °C.

Take “CGACGTGCCATATGTGCTG+CAGCACATTATGCACGTCG ((((((((...((((((((+))))))))...))))))))”: the Tm is 50.3 °C.

“CGACGTGCTCAATGTGCTG+CAGCACATCAAGCACGTCG (((((((((..((((((((+))))))))..)))))))))”: the Tm was found to be 51.6 °C.

Take “CGACGTGCAATATGTGCTG+CAGCACATGGAGCACGTCG ((((((((...((((((((+))))))))...))))))))”: the Tm was determined as 51 °C.

As to “CGACGTGCGTTATGTGCTG+CAGCACATGCGGCACGTCG ((((((((...((((((((+))))))))...))))))))”, the Tm worked out at 49.6 °C.

Consider “CGACGTGCTCTATGTGCTG+CAGCACATGTGGCACGTCG ((((((((...((((((((+))))))))...))))))))”, for which the Tm came to 50.4 °C.

For the substance “CGACGTGCACCATGTGCTG+CAGCACATACGGCACGTCG ((((((((...((((((((+))))))))...))))))))”, the Tm amounted to 42.9 °C.

As to “CGACGTGCCTGATGTGCTG+CAGCACATGGTGCACGTCG ((((((((...((((((((+))))))))...))))))))”, the Tm amounted to 47.4 °C.

On to “CGACGTGCAGGATGTGCTG+CAGCACATTCCGCACGTCG ((((((((.(.((((((((+)))))))).).))))))))”, for which the Tm stood at 54.6 °C.

With “CGACGTGCGGTATGTGCTG+CAGCACATACCGCACGTCG (((((((((((((((((((+)))))))))))))))))))”, the Tm worked out at 66 °C.

Regarding “CGACGTGCACTATGTGCTG+CAGCACATCGTGCACGTCG ((((((((((.((((((((+)))))))).))))))))))”, the Tm was determined as 51.4 °C.

With “CGACGTGCCACATGTGCTG+CAGCACATCGTGCACGTCG ((((((((...((((((((+))))))))...))))))))”, the Tm was found to be 46.3 °C.

Consider “CGACGTGCGTAATGTGCTG+CAGCACATACAGCACGTCG ((((((((...((((((((+))))))))...))))))))”, for which the Tm turned out to be 54 °C.

Consider “CGACGTGCCTCATGTGCTG+CAGCACATCAGGCACGTCG ((((((((((.((((((((+)))))))).))))))))))”, for which the Tm came out at 55 °C.

For the substance “CGACGTGCATAATGTGCTG+CAGCACATATGGCACGTCG ((((((((...((((((((+))))))))...))))))))”, the Tm stood at 50.4 °C.

As for “CGACGTGCCGTATGTGCTG+CAGCACATACTGCACGTCG ((((((((.((((((((((+)))))))))).))))))))”, the Tm came to 56.9 °C.

“CGACGTGCAATATGTGCTG+CAGCACATCCGGCACGTCG ((((((((...((((((((+))))))))...))))))))”: the Tm was 48.5 °C.

Consider “CGACGTGCCCTATGTGCTG+CAGCACATGGGGCACGTCG ((((((((((.((((((((+)))))))).))))))))))”, for which the Tm was determined as 61.4 °C.

Turning to “CGACGTGCGCTATGTGCTG+CAGCACATCGCGCACGTCG ((((((((((.((((((((+)))))))).))))))))))”, the Tm came to 60.1 °C.

For “CGACGTGCGGGATGTGCTG+CAGCACATCTTGCACGTCG ((((((((..(((((((((+)))))))))..))))))))”, the Tm amounted to 57.3 °C.

Take “CGACGTGCTACATGTGCTG+CAGCACATGACGCACGTCG ((((((((..(((((((((+)))))))))..))))))))”: the Tm is 50.8 °C.

For “CGACGTGCCAAATGTGCTG+CAGCACATGTGGCACGTCG ((((((((((.((((((((+)))))))).))))))))))”, the Tm came to 58.5 °C.

Take “CGACGTGCCATATGTGCTG+CAGCACATAGCGCACGTCG ((((((((..(((((((((+)))))))))..))))))))”: the Tm was 50 °C.

As to “CGACGTGCCATATGTGCTG+CAGCACATACGGCACGTCG (((((((((.(((((((((+))))))))).)))))))))”, the Tm was 55.3 °C.

Consider “CGACGTGCGCAATGTGCTG+CAGCACATTGCGCACGTCG (((((((((((((((((((+)))))))))))))))))))”, for which the Tm worked out at 67.1 °C.

Regarding “CGACGTGCTACATGTGCTG+CAGCACATGGCGCACGTCG ((((((((..(((((((((+)))))))))..))))))))”, the Tm stood at 54.7 °C.

Consider “CGACGTGCTGTATGTGCTG+CAGCACATCATGCACGTCG ((((((((...((((((((+))))))))...))))))))”, for which the Tm turned out to be 50.9 °C.

Turning to “CGACGTGCGTTATGTGCTG+CAGCACATAGGGCACGTCG ((((((((..(((((((((+)))))))))..))))))))”, the Tm was determined as 52.5 °C.

On to “CGACGTGCCCGATGTGCTG+CAGCACATAACGCACGTCG ((((((((...((((((((+))))))))...))))))))”, for which the Tm stood at 47.6 °C.

For the substance “CGACGTGCTGTATGTGCTG+CAGCACATGGCGCACGTCG ((((((((...((((((((+))))))))...))))))))”, the Tm is 48.9 °C.

For “CGACGTGCGACATGTGCTG+CAGCACATTTTGCACGTCG ((((((((.(.((((((((+)))))))).).))))))))”, the Tm was 51.4 °C.

Regarding “CGACGTGCTACATGTGCTG+CAGCACATACGGCACGTCG ((((((((...((((((((+))))))))...))))))))”, the Tm amounted to 48.8 °C.

On to “CGACGTGCAAGATGTGCTG+CAGCACATCACGCACGTCG ((((((((..(((((((((+)))))))))..))))))))”, for which the Tm came out at 53.8 °C.

Consider “CGACGTGCTCAATGTGCTG+CAGCACATTCTGCACGTCG ((((((((..(((((((((+)))))))))..))))))))”, for which the Tm came to 50.8 °C.

On to “CGACGTGCCGTATGTGCTG+CAGCACATCACGCACGTCG ((((((((...((((((((+))))))))...))))))))”, for which the Tm came to 51.2 °C.
